B1: ALK Antibody #4 (antibody, V domains shown)
VH: QVQLQQSGAELVKPGASVKISCKASGYAFSSYWVNWVKQRPGKGLEWIGQIYPGDGDTNYNGKFKGKATLTADKSSSTAYMQLSSLTSEDSAVYFCARSRGYFYGSTYDSWGQGTTLTVSS
VL: not shown
B2: ALK Antibody #3 (antibody, V domains shown)
VH: QVQLQQSGAELAKPGASVKLSCKASGYTFTNYWMHWVKQRPGQGLEWIGYINPSSGYTKYNQKFKDKATLTADKSSSTAYMQLSSLTYEDSAVYYCARDYYGSSSWFAYWGQGTLVTVSA
VL: DIVMTQSQRFMSTSVGDRVSVTCKASQNVGTNVAWYQQKPGQSPKALIYSASYRYSGVPDRFTGSGSGTDFTLTVSNVQSEDLAEYFCQQYNSYPYMYTFGGGTKLEIKR
B3: ALK Antibody #7 (antibody, V domains shown)
VH: QVQLQQSGAELAKPGASVKLSCKASGYTFTSYWMHWVKQRPGQGLEWIGYINPSSGYTKYNQKFKDKATLTADKSSSTAYMQLSSLTFEDSAVYYCARDYYGSSSWFAYWGQGTLVTVSA
VL: DIVMTQSQKFMSTSVGDRVSVTCKASQNVGTNVAWYQQKPGHSPKALIYSASYRYSGVPDRFTGSGSGTDFTLTISNVQSEDLAEYFCQRYNSYPYMFTFGGGTKLEIKR
B4: ALK Antibody #5 (antibody, V domains shown)
VH: QVQLQQSGAELAKPGASVKLSCKASGYTFTSYWMHWVKQRPGQGLEWIGYIKPSSGYTKYNQKFKDKATLTADKSSSTAYMQLSSLTYEDSAVYYCARDYYGSSSWFAYWGQGTLVTVSA
VL: DIVMTQSQRFMSTSVGDRVSVTCKASQNVGTNVAWYQQKPGQSPKALIYSASYRYSGVPDRFTGSGSGTDFTLTISNVQSEDLAEYFCQQYNSYPYMYTFGGGTKLEIKR
B5: ALK Antibody #1 (antibody, V domains shown)
VH: QVQLQQSGAELVKPGASVKISCKASGYAFSSYWMNWVKQRPGKGLEWIGQIYPGDGDTNYNGKFKGKATLTADKSSSTAYMQLSSLTSEDSAVYFCASYYYGSKAYWGQGTLVTVSA
VL: DIQMTQSPASLAASVGETVTITCRASENIYYSLAWYQQKQGKSPQLLIYNANSLEDGVPSRFSGSGSGTQYSMKINSMQPEDTATYFCKQAYDVPFTFGSGTKLEIKR
B6: ALK Antibody #6 (antibody, V domains shown)
VH: DVKLVESGEGLVKPGGSLKLSCAASGFTFSSYAMSWVRQTPEKRLEWVTYISSGGDYIYYADTVKGRFTISRDNARNTLYLQMSSLKSEDTAMYYCTRERIWLRRFFDVWGTGTTVTVSS
VL: DIVMTQSQKFMSTSVGDRVSITCKASQNVGTAVAWYQLKPGQSPKLLIYSASNRFTGVPDRFTGSGSGTDFTLTISNMQSEDLADYFCQQYSSYPLTFGSGTKLEIKR

For this experiment, the target named is human ALK receptor (human). As to the kind of experiment: apparent KD (KD^app), method not stated.
Chain of human ALK receptor (human) (chain, as listed by the source): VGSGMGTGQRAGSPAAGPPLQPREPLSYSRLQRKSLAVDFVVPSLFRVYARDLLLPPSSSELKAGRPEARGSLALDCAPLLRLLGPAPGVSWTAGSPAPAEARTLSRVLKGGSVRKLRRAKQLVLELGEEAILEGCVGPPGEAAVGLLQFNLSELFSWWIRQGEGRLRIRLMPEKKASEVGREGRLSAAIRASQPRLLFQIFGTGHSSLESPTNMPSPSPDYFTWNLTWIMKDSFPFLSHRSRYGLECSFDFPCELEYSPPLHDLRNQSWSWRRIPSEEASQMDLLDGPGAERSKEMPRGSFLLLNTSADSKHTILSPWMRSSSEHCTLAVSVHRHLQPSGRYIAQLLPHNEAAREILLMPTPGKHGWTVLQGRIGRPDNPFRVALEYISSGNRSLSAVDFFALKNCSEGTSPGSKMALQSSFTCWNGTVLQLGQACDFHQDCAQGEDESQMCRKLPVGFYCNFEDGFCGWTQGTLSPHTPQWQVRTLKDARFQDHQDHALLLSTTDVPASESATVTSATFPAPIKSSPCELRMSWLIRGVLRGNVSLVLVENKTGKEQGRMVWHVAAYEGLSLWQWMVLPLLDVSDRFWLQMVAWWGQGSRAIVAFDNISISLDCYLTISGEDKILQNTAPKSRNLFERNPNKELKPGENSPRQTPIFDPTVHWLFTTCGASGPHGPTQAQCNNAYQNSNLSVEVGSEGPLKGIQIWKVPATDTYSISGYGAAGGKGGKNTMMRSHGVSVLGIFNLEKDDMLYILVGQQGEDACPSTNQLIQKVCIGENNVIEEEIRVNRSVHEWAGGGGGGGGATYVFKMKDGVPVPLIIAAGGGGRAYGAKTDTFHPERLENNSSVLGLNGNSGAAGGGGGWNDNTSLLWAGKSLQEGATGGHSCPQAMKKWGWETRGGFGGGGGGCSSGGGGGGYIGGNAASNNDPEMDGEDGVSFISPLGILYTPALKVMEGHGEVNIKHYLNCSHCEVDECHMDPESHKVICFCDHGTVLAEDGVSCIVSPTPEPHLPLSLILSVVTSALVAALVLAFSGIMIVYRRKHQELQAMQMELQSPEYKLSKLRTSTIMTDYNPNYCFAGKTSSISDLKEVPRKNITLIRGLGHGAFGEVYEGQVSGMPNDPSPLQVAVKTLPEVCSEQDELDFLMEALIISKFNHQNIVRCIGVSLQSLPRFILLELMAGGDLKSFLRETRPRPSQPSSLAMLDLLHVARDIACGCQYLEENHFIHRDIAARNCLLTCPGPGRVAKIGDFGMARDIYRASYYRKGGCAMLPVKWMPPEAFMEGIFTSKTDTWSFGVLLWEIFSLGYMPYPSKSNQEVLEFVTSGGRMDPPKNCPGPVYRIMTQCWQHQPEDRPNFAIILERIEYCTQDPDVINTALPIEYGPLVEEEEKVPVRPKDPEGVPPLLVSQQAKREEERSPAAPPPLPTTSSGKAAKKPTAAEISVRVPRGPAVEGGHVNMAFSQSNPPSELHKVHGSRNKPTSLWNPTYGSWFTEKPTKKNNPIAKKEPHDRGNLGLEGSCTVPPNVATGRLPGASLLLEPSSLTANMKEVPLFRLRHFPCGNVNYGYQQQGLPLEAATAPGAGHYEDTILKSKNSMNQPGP
For the molecule B1, the Kd was determined as 0.5 nM.

For B2, the Kd came out at 0.5 nM.

With B3, the Kd is 0.5 nM.

With B4, the Kd amounted to 0.5 nM.

Take B5: the Kd was found to be 0.35 nM.

In the case of B6, the Kd was found to be 0.4 nM.
